The source of these data is paper PMC10500825, “TGFβ1-RCN3-TGFBR1 loop facilitates pulmonary fibrosis by orchestrating fibroblast activation” (Respiratory Research, 2023).

The test concerns the target T1, recombinant human EZH2 protein, biotinylated (human, UniProt Q15910 1-746, biotin (Biotinylation Kit, Thermo Scientific 21329)).
T1 construct: Enhancer of zeste homolog 2 (EZH2), human recombinant protein, Origene TP302054; check the vendor's sheet; also called rhEZH2; source: bought: Origene (TP302054), biotinylated and desalted
Kind of test: BLI; OctetRED; his-tagged rhRcn3 (5 µg/ml) immobilised on NTA biosensors; biotinylated rhEZH2 at 262.3, 131.1, 65.56 and 32.78 µg/ml in binding buffer; association and dissociation for 10 min at 25 °C. As to conditions: both partners purified. (In general: BLI is a label-free optical method that tracks binding on a fibre tip over time.)

One may read the Kd as the free concentration of one partner at which half of the binding sites on the other are occupied at equilibrium, for simple one-to-one binding.

T1 sequence (Q15910 whole entry): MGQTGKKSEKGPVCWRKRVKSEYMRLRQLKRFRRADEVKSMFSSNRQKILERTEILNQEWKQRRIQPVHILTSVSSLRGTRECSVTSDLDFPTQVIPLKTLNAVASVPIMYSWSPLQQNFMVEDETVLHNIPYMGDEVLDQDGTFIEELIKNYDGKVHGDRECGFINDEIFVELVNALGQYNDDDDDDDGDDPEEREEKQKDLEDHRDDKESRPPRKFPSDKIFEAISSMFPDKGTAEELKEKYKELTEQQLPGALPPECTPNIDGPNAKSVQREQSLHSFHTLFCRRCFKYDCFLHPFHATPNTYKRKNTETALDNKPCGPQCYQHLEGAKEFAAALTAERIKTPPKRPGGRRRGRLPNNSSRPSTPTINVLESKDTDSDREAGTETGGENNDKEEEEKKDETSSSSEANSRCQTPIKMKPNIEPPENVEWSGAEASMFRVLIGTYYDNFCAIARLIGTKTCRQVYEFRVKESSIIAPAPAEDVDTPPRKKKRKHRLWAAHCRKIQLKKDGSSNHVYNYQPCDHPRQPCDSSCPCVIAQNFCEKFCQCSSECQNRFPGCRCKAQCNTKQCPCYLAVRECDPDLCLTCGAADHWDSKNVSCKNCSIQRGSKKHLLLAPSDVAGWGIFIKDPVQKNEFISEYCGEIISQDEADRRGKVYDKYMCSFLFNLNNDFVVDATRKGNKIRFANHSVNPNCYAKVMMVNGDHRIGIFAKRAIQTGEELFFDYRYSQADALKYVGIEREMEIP

B1: recombinant human Rcn3 with his-tag (natural protein, UniProt Q96D15 21-328, looked up)
chain: KPSPDAGPHGQGRVHQAAPLSDAPHDDAHGNFQYDHEAFLGREVAKEFDQLTPEESQARLGRIVDRMDRAGDGDGWVSLAELRAWIAHTQQRHIRDSVSAAWDTYDTDRDGRVGWEELRNATYGHYAPGEEFHDVEDAETYKKMLARDERRFRVADQDGDSMATREELTAFLHPEEFPHMRDIVIAETLEDLDRNKDGYVQVEEYIADLYSAEPGEEEPAWVQTERQQFRDFRDLNKDGHLDGSEVGHWVLPPAQDQPLVEANHLLHESDTDKDGRLSKAEILGNWNMFVGSQATNYGEDLTRHHDEL
notes: Reticulocalbin 3 (RCN3), human recombinant protein, Abcam ab276552; Construct limits are those of the vendor's product; also called rhRcn3; hrRcn3; source: bought: Abcam (ab276552)
Turning to B1, the Kd was determined as 1540 nM.
